Reference: the supplement of paper PMC9112550, “Optimization of the antimicrobial peptide Bac7 by deep mutational scanning” (BMC Biology, 2022)

Test system: Escherichia coli TOP10
Experiment: shrunken log2 fold change of peptide-encoding DNA abundance (4.5 h post-induction vs induction); higher = less antimicrobial activity (less host growth inhibition)
Settings: time post-induction: 4.5 h; library: site-saturation at positions 5, 18, 19, 20
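Also: peptides expressed intracellularly from a pBAD plasmid library in pooled LB shake-flask culture, induced with 0.3% L-arabinose, DNA abundance read by NGS, three biological replicates, DESeq2 with apeglm shrinkage.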

Sequence | shrunken log2 fold change
RRIRCRPPRLPRPRPRPLMFPRP | -0.433
RRIRCRPPRLPRPRPRPRPVPRP | 0.766
RRIRVRPPRLPRPRPRPIEAPRP | -0.00729
RRIRARPPRLPRPRPRPFAPPRP | 0.61
RRIRARPPRLPRPRPRPEGYPRP | 0.582
RRIRTRPPRLPRPRPRPVKDPRP | -0.0913
RRIRFRPPRLPRPRPRPPKTPRP | 0.0214
RRIRVRPPRLPRPRPRPPDEPRP | 0.621
RRIRMRPPRLPRPRPRPTNTPRP | 0.176
RRIRDRPPRLPRPRPRPDNDPRP | 0.212
RRIRWRPPRLPRPRPRPAQFPRP | 0.248
RRIRQRPPRLPRPRPRPVFRPRP | -0.0986
RRIRARPPRLPRPRPRPMDIPRP | 0.142
RRIRTRPPRLPRPRPRPSNNPRP | -0.639
RRIRRRPPRLPRPRPRPETNPRP | 0.596
RRIRWRPPRLPRPRPRPKTVPRP | 0.227
RRIRFRPPRLPRPRPRPFRWPRP | 0.178
RRIRSRPPRLPRPRPRPDCDPRP | 0.152
RRIRIRPPRLPRPRPRPNLRPRP | -0.117
RRIRKRPPRLPRPRPRPASRPRP | 0.519
RRIRQRPPRLPRPRPRPGMMPRP | -0.0714
RRIRERPPRLPRPRPRPHGHPRP | 0.0257
RRIRWRPPRLPRPRPRPWPLPRP | -0.273
RRIRYRPPRLPRPRPRPCRIPRP | -0.0823
RRIRERPPRLPRPRPRPMTRPRP | -0.00264

Sequence | shrunken log2 fold change
RRIRSRPPRLPRPRPRPVYMPRP | -0.461
RRIRKRPPRLPRPRPRPWTMPRP | 0.00233
RRIRERPPRLPRPRPRPWLGPRP | -0.247
RRIRHRPPRLPRPRPRPTCKPRP | -0.015
RRIRLRPPRLPRPRPRPYEVPRP | -0.0159
RRIRTRPPRLPRPRPRPETEPRP | -0.016
RRIRARPPRLPRPRPRPYETPRP | -0.0398
RRIRNRPPRLPRPRPRPRWDPRP | 0.249
RRIRTRPPRLPRPRPRPQACPRP | -0.0237
RRIRGRPPRLPRPRPRPKNMPRP | 0.176
RRIRHRPPRLPRPRPRPAEHPRP | -0.144
RRIRVRPPRLPRPRPRPVSSPRP | 0.105
RRIRHRPPRLPRPRPRPPVAPRP | 0.0782
RRIRQRPPRLPRPRPRPMCSPRP | -0.000965
RRIRGRPPRLPRPRPRPKRYPRP | 0.253
RRIRDRPPRLPRPRPRPMIVPRP | 0.00989
RRIRNRPPRLPRPRPRPHPIPRP | 0.033
RRIRHRPPRLPRPRPRPTVSPRP | -0.0706
RRIRHRPPRLPRPRPRPYKLPRP | -0.611
RRIRNRPPRLPRPRPRPTHQPRP | 0.194
RRIRHRPPRLPRPRPRPNTSPRP | -0.534
RRIRERPPRLPRPRPRPTTDPRP | -0.148
RRIRKRPPRLPRPRPRPPHLPRP | 0.332
RRIRRRPPRLPRPRPRPYFQPRP | -0.189
RRIRSRPPRLPRPRPRPYTFPRP | -1.01

Sequence | shrunken log2 fold change
RRIRARPPRLPRPRPRPNFKPRP | 0.0298
RRIRERPPRLPRPRPRPKPKPRP | 0.0931
RRIRTRPPRLPRPRPRPDCRPRP | 0.106
RRIRWRPPRLPRPRPRPANKPRP | -0.348
RRIRDRPPRLPRPRPRPWTVPRP | -0.168
RRIRWRPPRLPRPRPRPYVQPRP | -0.0608
RRIRPRPPRLPRPRPRPDWNPRP | -0.0666
RRIRDRPPRLPRPRPRPCRDPRP | -0.106
RRIRSRPPRLPRPRPRPQAPPRP | 0.142
RRIRARPPRLPRPRPRPLLPPRP | 0.419
RRIRVRPPRLPRPRPRPRLIPRP | -0.293
RRIRPRPPRLPRPRPRPQWHPRP | -0.176
RRIRPRPPRLPRPRPRPGMGPRP | 0.149
RRIRIRPPRLPRPRPRPNGQPRP | -0.0848
RRIRRRPPRLPRPRPRPSNKPRP | -0.101
RRIRERPPRLPRPRPRPIFGPRP | -0.112
RRIRNRPPRLPRPRPRPDPPPRP | 0.143
RRIRSRPPRLPRPRPRPPMYPRP | -0.549
RRIRNRPPRLPRPRPRPALEPRP | 0.025
RRIRSRPPRLPRPRPRPATPPRP | 0.373
RRIRSRPPRLPRPRPRPDCTPRP | 0.038
RRIRCRPPRLPRPRPRPMDAPRP | -0.0146
RRIRFRPPRLPRPRPRPIDIPRP | 0.0578
RRIRSRPPRLPRPRPRPMCTPRP | 0.0289
RRIRTRPPRLPRPRPRPPCDPRP | 0.0499

Sequence | shrunken log2 fold change
RRIRARPPRLPRPRPRPNMRPRP | 0.25
RRIRWRPPRLPRPRPRPYGMPRP | -0.4
RRIRLRPPRLPRPRPRPRQQPRP | 0.319
RRIRTRPPRLPRPRPRPQDTPRP | -0.284
RRIRPRPPRLPRPRPRPAWRPRP | 0.645
RRIRDRPPRLPRPRPRPFYKPRP | -0.421
RRIRVRPPRLPRPRPRPWQPPRP | 0.146
RRIRKRPPRLPRPRPRPAYMPRP | 0.0668
RRIRGRPPRLPRPRPRPWRWPRP | 0.656
RRIRYRPPRLPRPRPRPFRQPRP | 0.0775
RRIRTRPPRLPRPRPRPGKYPRP | -0.755
RRIRGRPPRLPRPRPRPKVAPRP | 0.538
RRIRFRPPRLPRPRPRPEKRPRP | -0.0774
RRIRIRPPRLPRPRPRPKFYPRP | -0.713
RRIRSRPPRLPRPRPRPEHCPRP | -0.0141
RRIRRRPPRLPRPRPRPFANPRP | 0.00652
RRIRKRPPRLPRPRPRPHEEPRP | 0.0526
RRIRKRPPRLPRPRPRPQDTPRP | -0.0445
RRIRCRPPRLPRPRPRPLQVPRP | -0.481
RRIRKRPPRLPRPRPRPQTLPRP | 0.0931
RRIRERPPRLPRPRPRPHYGPRP | -0.249
RRIRERPPRLPRPRPRPPWLPRP | 0.488
RRIRSRPPRLPRPRPRPLRNPRP | 1.38
RRIRWRPPRLPRPRPRPEGAPRP | 1.13
RRIRPRPPRLPRPRPRPLKQPRP | 0.0902

Sequence | shrunken log2 fold change
RRIRARPPRLPRPRPRPDVPPRP | -0.0329
RRIRLRPPRLPRPRPRPKCSPRP | -0.035
RRIRQRPPRLPRPRPRPHHHPRP | -0.403
RRIRNRPPRLPRPRPRPSIAPRP | -0.0838
RRIRLRPPRLPRPRPRPDGQPRP | 0.00145
RRIRYRPPRLPRPRPRPPGHPRP | -0.337
RRIRPRPPRLPRPRPRPELRPRP | -0.0276
RRIRGRPPRLPRPRPRPMYDPRP | 0.233
RRIRSRPPRLPRPRPRPVSRPRP | -0.0166
RRIRSRPPRLPRPRPRPAYMPRP | -0.608
RRIRDRPPRLPRPRPRPVTKPRP | -0.173
RRIRCRPPRLPRPRPRPTWDPRP | 0.151
RRIRIRPPRLPRPRPRPVQIPRP | 0.072
RRIRYRPPRLPRPRPRPSIRPRP | -0.116
RRIRMRPPRLPRPRPRPQANPRP | 0.271
RRIRYRPPRLPRPRPRPPESPRP | 0.0226
RRIRQRPPRLPRPRPRPPDYPRP | 0.00906
RRIRSRPPRLPRPRPRPNIQPRP | -0.28
RRIRCRPPRLPRPRPRPNHRPRP | -0.233
RRIRWRPPRLPRPRPRPRCNPRP | 0.0644
RRIRKRPPRLPRPRPRPTFWPRP | 0.36
RRIRPRPPRLPRPRPRPPQDPRP | 0.523
RRIRQRPPRLPRPRPRPWRFPRP | -0.113
RRIRWRPPRLPRPRPRPCLKPRP | 0.0308
RRIRVRPPRLPRPRPRPDSKPRP | -0.34
